Results: paper PMC10976854 (Cell, 2024)

Target: the molecule itself
Test: crystal structure

B1: mZP2-N2N3 (mouse ZP2 NTR ΔN1 construct) (domain or fragment, UniProt P20239 135-360, looked up)
chain: PAIQAETHEISEIVVCRRDLISFSFPQLFSRLADENQNVSEMGWIVKIGNGTRAHILPLKDAIVQGFNLLIDSQKVTLHVPANATGIVHYVQESSYLYTVQLELLFSTTGQKIVFSSHAICAPDLSVACNATHMTLTIPEFPGKLESVDFGQWSIPEDQWHANGIDKEATNGLRLNFRKSLLKTKPSEKCPFYQFYLSSLKLTFYFQGNMLSTVIDPECHCESPVS
  binding result: binds
